From patent publication US20080206243A1 (Genentech, published 2008) come the findings set out here.

Experiment [1] addresses T1, KDR (UniProt P35968 20-764, limits assumed).
T1 construct: The receptor construct used in the RIA is not described; also called KDR receptor; VEGFR-2
Briefly: soluble radio-immuno receptor-binding assay (RIA).

For experiment [2], the target named is T1, KDR. As to the kind of experiment: soluble radio-immuno receptor-binding assay (RIA); target KDR.
Experiment [3] addresses T2, Flt-1 (UniProt P17948 27-758, limits assumed).
T2 construct: The receptor construct used in the RIA is not described; also called Flt-1 receptor; VEGFR-1
As to the kind of experiment: soluble radio-immuno receptor-binding assay (RIA); target Flt-1.

T1 sequence (P35968 20-764 limits assumed): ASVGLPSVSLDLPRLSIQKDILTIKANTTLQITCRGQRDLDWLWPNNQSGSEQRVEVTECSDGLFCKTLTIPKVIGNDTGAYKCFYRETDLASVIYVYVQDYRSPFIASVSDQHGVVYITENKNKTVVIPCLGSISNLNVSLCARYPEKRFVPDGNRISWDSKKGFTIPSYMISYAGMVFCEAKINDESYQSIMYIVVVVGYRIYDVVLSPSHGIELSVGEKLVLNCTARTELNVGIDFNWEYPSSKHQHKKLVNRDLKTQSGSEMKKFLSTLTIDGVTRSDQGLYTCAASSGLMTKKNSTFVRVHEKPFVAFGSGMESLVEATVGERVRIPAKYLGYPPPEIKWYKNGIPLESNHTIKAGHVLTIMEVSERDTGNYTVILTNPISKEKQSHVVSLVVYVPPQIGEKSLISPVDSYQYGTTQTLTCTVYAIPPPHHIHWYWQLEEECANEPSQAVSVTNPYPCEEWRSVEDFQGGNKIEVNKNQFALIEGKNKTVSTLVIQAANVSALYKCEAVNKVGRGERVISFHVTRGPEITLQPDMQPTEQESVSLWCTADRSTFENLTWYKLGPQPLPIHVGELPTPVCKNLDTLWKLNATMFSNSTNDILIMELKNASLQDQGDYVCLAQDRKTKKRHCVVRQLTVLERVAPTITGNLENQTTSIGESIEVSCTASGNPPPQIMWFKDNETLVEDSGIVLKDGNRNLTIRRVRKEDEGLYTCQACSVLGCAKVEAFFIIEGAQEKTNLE
T2 sequence (P17948 27-758 limits assumed): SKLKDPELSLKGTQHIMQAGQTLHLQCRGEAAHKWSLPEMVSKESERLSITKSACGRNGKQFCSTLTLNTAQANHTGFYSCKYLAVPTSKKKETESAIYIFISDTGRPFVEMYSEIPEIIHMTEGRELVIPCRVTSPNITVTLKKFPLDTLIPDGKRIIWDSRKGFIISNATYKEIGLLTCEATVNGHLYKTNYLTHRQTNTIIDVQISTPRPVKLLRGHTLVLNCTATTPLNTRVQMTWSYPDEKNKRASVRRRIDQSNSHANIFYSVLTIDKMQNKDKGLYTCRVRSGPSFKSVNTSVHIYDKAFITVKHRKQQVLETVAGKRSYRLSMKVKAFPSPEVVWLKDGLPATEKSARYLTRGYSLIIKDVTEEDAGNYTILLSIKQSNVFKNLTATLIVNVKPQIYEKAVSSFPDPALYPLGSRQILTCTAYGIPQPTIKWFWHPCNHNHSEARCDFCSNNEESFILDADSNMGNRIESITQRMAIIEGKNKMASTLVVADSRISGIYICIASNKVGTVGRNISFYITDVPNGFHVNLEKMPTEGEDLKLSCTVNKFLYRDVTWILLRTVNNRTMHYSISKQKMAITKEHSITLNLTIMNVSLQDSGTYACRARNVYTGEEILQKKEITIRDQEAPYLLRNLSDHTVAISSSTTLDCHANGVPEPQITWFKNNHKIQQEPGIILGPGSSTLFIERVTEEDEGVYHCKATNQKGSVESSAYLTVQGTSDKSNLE

As for “I43A/I46A/Q79A/I83A Flt-sel variant (from UniProt P15692 27-135) (ligand)”, the fold reduction of KDR-binding affinity against native VEGF in experiment [1] is > 470 fold.

B1: native VEGF(8-109) (ligand, human, UniProt P15692 214-315, looked up)
chain: GQNHHEVVKFMDVYQRSYCHPIETLVDIFQEYPDEIEYIFKPSCVPLMRCGGCCNDEGLECVPTEESNITMQIMRIKPHQGQHIGEMSFLQHNKCECRPKKD
notes: range 8-109; Residues 8-109 are counted on the native (mature) 165-amino acid VEGF, not on the precursor with its signal peptide; the listing holds only primers; also called native protein
Usually Kd stands for the equilibrium constant for the complex coming apart. Read a high Kd as lower affinity. As for B1, the Kd in experiment [2] came to 500 pM; in experiment [3] it was 400 pM.
